# Measured values as given in publication PMC3220887 (Structure (London, England : 1993), 2011).
# B1: D48V-GLTP (human glycolipid transfer protein, D48V mutant) (natural protein, UniProt Q9NZD2 1-209, looked up)
# chain: MALLAEHLLKPLPADKQIETGPFLEAVSHLPPFFDCLGSPVFTPIKAVISGNITKIKAVYDTNPAKFRTLQNILEVEKEMYGAEWPKVGATLALMWLKRGLRFIQVFLQSICDGERDENHPNLIRVNATKAYEMALKKYHGWIVQKIFQAALYAAPYKSDFLKALSKGQNVTEEECLEKIRLFLVNYTATIDVIYEMYTQMNAELNYKV
# Target: the molecule itself
# Test: dynamic light scattering
protein,measurement,value
B1,stoichiometry N,2
